Results taken from the DeepSol protein solubility set.

Experiment: soluble on expression in E. coli; label from the status in PepcDB or PDB records

Sequence	soluble on expression in E. coli
APQIQYKQLQLARLKILRELSNKRNSTVITMIHRQESIGLFGIPVYKFITIEDSEEILRAIRAAPKDKPIDLIIHTPGGLVLAATQIAKALKAHPAETRVIVPHYAMSGGTLIALAADKIIMDENAVLGPVDPQLGQYPAPSIVKAVEQKGADKADDQTLILADIAKKAINQVQNFVYNLLKDKYGEEKAKELSKILTEGRWTHDYPITVEEAKELGL	not soluble
MSLAESAFSERIVQNLLDTDFYKLTMMQAVLHNYPNAEVEWEFRCRNQEDLRLYLPAIREQLEYLAGLAISDEQLAFLERIPFLAPDFIRFLGLFRFNPRYVQTGIENDEFFLRLKGPWLHVILFEVPLLAMISEVRNRARYPAATVEQARERLQEKFDWLRREASAEELAGFKMADFGTRRRFSYRVHEAVVSGLKEDFPGCFVGTSNVHLARKLDLKPLGTMAHEWLMAHQQLGPRLIDSQSAALDCWVREYRGLLGIALTDCITTDAFLRDFDLYFAKLFDGLRHDSGDPLLWAEKTIAHYLKLGIDPLTKTLVFSDGLDLPRALKIYRALQGRINVSFGIGTHFTCDLPGVEPMNIVVKMSACNGHPVAKISDTPGKAQCRDPDFIHYLKHVFQVAEGHHHHHH	soluble
MKKIAIIGGGIIGMTLANYLDPQKFDITVYDEGLGQATKASAGIISPWLSKRRNKKWYQLAREGAALFPKLVKDFQLTEDIYRQSGTVILRPAAALADLAHLAEERKQTAPEIGEITMLSAVQTAKFLPLLKETPSLFISGGGRLDGPAYLNHLQKRAEAKGVTFCSQRAHFRQLNQGWEIVTNSEKKSVDFLALTPGPHLKELLTTLNLSVDIRPQKGQLLVFETPFTNSQQWPVAMLDGEADLIPFNQGKILLGATHENEQAWDLEETVSAFQQLTSGTAPFLKEAEQLFKQPMHYRVGTRAYTSDFAPFFGPLPEMPHLVVASGLGSSGLTTGPFIGYQLAEYFNTGAFKGELYQKPLSQYVKNNPSLLEHHHHHH	soluble
GSPEFRWTKEEEETRQMYDMVVKIIDVLRSHNEACQENKDLQPYMPIPHVRDSLIQPHDRKKMKKVWDRAVDFLAANESRVRTETRRIGGADFLVWRWIQPSASCDKILVIPSKVWQGQAFHLDRRLERPHRD	soluble
MPSLFKRSLLPKLRSFPLAAEAFTTLTGAAQFRRTLLEQIAQARRRIYIVALYLQQDEAGQEILDALHAAKAARPELEVVVVVDWLRAQRGLIGAGKQPGNSAWYQQMTRTHASEVPIYGVPVQTRELFGVLHLKGFIIDDCVLYSGASLNNVYLHKFDKYRFDRYHLLHNQALADSMHHLVQHGLVESRAVHRLDLPNLPTTRSLRNDIGDLRSRLKHATYDTTAGGLDKSGLSVSPLLGVGKGNPLNRVICELIAGAQRQLTICTPYFNLPLPVTREINRALERGVKIDIIVGDKTANDFYIPPSEPFKVIAALPYLYEISLRRFAKRHQKVIDNGQLNLHLWRDGDNTYHLKGMWVDERYTLLTGNNLNPRAFRLDLENALLLDDPKGELLQARNAEQAEIYRHTRRIEHFQYLDSLVDYPEAVGKFLRRVSRVRIERLLYRMLLEHHHHHH	not soluble
MGSDKIHHHHHHMDNLQFTHAIARIRVLETRLLDRSKIERMIDSSSAEEALKILGETEYLNYMSNVRSPEDYEILLSEELKRLYTLLYSISPERSIIDIMALRYDYHNLKVMLKGKYLEKDLTYLLIPVGTISNDKLKQIFATEFYKELTPLMREALEKAESEYEGDKDPQKIDLILDSYAYKEILSKSEEVNEKFINDYIKMSIDLNNIRALLRAKAQNKHRKFFEAIILDGGTIDKKTLISYESETSDSIANKLSYTPYEKIIRLGLEEYSKTNNISYFEKLSENYIMDFIKKAKQVSFGVEPLIGYIIAKETEIKIIRIIMVGKLNSIAPNIIRERLRDAYV	not soluble
MGSDKIHHHHHHMKKLRVPHRTKSARVVQELVRLAAGLAASGSRVEDAFWENCLTAKIHAQLRTGDDQNLESALDQLYDTDPGGYSEFMYAIEAAIECSIFTRGNHTYDVLMLAVPMLTWSRFSIPSGLIAESVLSELRGQLQVQVLADDAQLALADCLFSPDQLPRGYHLTHELARKLWSTAVTGQRDLHMNPRQLPETGRFLSDTRYLLGGIAVPQGKPMFRWQQGTAGEHKGSNVSALQFSKEQILHAWQTHGTAVLLPLFQGCAFELLMPDGFFSAWRAADRLARPYSVRATVDFLETTLGISPDRLRAVIAPFYDQWLEEYRIGFTLKDRDSVLYGIIWGLVGDEDENTDSVAQIEAALRECGVTQTILLQEHFLLEYCEECGGPLFPNVNGEIVHAEFPEEGEVAPIHLH	not soluble
